# Assay results taken from patent US20140206846A1 (published 2014).
# Substitutions are numbered along the chain they refer to.
# B1: IL6 P (Fab, V domains shown)
# VH: EVQLVESGGGLVQPGGSLRLSCAASGFTFSSYAMSWIRQAPGKGLEWIGQISGSGGSTVYNYNVLGRFTISRDNSKNTLYLQMNSLRAEDTAVYYCARDSGYFDIWGQGTLVTVSS
# VL: NIQKTQSPSSLSASVGDRVTITCRALWHISSYLAWYQQKPGKAPKLLIYAASSLYSGVPSRFSGSGSGTDFTLTISSLQPEDFATYYCQQYSGLPYTFGQGTKVEIKR
# B2: VH6L (bispecific antibody, V domains shown)
# VH: B1 VH with E1Y, V2Y, S25D, T28L, S31G, S100T, I105H
# VL: NIQKTQSPSSLSASVGDRVTITCRALWHISSYLAWYQQKPGKAPKLLIYAASHLHYGVPSRFSGSGSGTDFTLTISSLQPEDFATYYCQQYSGLPYTFGQGTKVEIK
# B3: GH6L (bispecific antibody, V domains shown)
# VH: B1 VH with E1W, S25K, F27A, T28L, S31T
# VL: B2 VL with N1A, I2T, K4R, H53W, H55Y, Y56W, G57D
# B4: Fab DT3 (bispecific antibody, V domains shown)
# VH: B1 VH with E1W, S25R, T28P, S31H, V59W, Y62H, N63D, V64I, L65K, I105W
# VL: GIQMTQSPSSLSASVGDRVTITCRARWYISSYLAWYQQKPGKAPKLLIFAASRLILNVPSRFSGSGSGKDFTLTISSLQPEDFATYYCQQYSELPYTFGQGTKVEIK
# Experiments:
# [1] = molecular target: T1, VEGF (human, UniProt P15692 27-191); assay: Biacore
# T1 chain: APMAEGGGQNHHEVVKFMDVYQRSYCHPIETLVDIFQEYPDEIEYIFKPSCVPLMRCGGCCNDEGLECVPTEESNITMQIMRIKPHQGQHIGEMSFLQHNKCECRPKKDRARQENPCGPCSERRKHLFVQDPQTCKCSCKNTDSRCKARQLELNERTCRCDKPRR
# [2] = molecular target: IL6 (human, UniProt P05231 30-212); assay: Biacore
# [3] = molecular target: T2, human IL6 (human, UniProt P05231 30-212); assay: Biacore
# [4] = molecular target: T2, human IL6; assay: Biacore; captured on GMCSF
# [5] = molecular target: T2, human IL6; assay: Biacore; captured on anti-LC
# [6] = molecular target: MBP; assay: Biacore
# [7] = molecular target: GST; assay: Biacore
# T2 sequence (P05231 30-212): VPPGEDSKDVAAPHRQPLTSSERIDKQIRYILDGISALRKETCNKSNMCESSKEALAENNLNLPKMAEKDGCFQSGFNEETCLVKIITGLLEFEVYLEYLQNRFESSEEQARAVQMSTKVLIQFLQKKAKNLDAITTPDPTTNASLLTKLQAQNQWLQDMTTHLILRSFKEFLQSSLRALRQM
# Chain of IL6 (P05231 30-212): as above
binder,measurement,setting,value
B1,koff,[1],0.00204 s⁻¹
same,koff,[2],0.00413 s⁻¹
B2,koff,[3],0.00472 s⁻¹
B3,Kd,[4],18.7 nM
same,Kd,[5],30.4 nM
B4,Kd,[6],313 nM
same,Kd,[7],17 nM
